According to patent US20190381086:

Target: Ubc12^N8 made with wild type Ubc12 (thioester-linked to NEDD8), purified, P61081
Sequence (P61081 whole entry, looked up): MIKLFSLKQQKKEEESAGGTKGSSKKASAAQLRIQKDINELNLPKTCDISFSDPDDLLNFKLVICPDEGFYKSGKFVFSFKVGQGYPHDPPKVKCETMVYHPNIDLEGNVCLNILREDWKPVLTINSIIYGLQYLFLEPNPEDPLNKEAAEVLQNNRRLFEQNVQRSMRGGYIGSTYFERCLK

B1: full-length human GlyRS (protein)
chain: MDGAGAEEVLAPLRLAVRQQGDLVRKLKEDKAPQVDVDKAVAELKARKRVLEAKELALQPKDDIVDRAKMEDTLKRRFFYDQAFAIYGGVSGLYDFGPVGCALKNNIIQTWRQHFIQEEQILEIDCTMLTPEPVLKTSGHVDKFADFMVKDVKNGECFRADHLLKAHLQKLMSDKKCSVEKKSEMESVLAQLDNYGQQELADLFVNYNVKSPITGNDLSPPVSFNLMFKTFIGPGGNMPGYLRPETAQGIFLNFKRLLEFNQGKLPFAAAQIGNSFRNEISPRSGLIRVREFTMAEIEHFVDPSEKDHPKFQNVADLHLYLYSAKAQVSGQSARKMRLGDAVEQGVINNTVLGYFIGRIYLYLTKVGISPDKLRFRQHMENEMAHYACDCWDAESKTSYGWIEIVGCADRSCYDLSCHARATKVPLVAEKPLKEPKTVNVVQFEPSKGAIGKAYKKDAKLVMEYLAICDECYITEMEMLLNEKGEFTIETEGKTFQLTKDMINVKRFQKTLYVEEVVPNVIEPSFGLGRIMYTVFEHTFHVREGDEQRTFFSFPAVVAPFKCSVLPLSQNQEFMPFVKELSEALTRHGVSHKVDDSSGSIGRRYARTDEIGVAFGVTIDFDTVNKTPHTATLRDRDSMRQIRAEISELPSIVQDLANGNITWADVEARYPLFEGQETGKKETIEE
- stability (half-life) of Ubc12^N8 in vitro at 37°, SDS-PAGE: In the presence of GlyRS, but not BSA, Ubc12^N8 was significantly more stable than in the absence of GlyRS
